Experimental data: US20230189818A1, “RNA-BASED CONTROL OF BOTRYTIS” (priority 2021, published 2023)

Legend:
Botrytis cinerea conidia = test: In vitro liquid-based assay (fungal biomass, 96-well plates, Cytation 5); type: cell-based; settings: co-incubated with conidia for three days, vs untreated control
In short: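 Conidia (5000/mL stock) were co-incubated with dsRNA or control treatments in pH 6.0 minimal medium. Incubation ran 72 h at 23 °C, shaking at 120 rpm under continuous light. Fungal biomass was measured by brightfield imaging (8 slices per well, 2.5× lens) and expressed as average reduction versus control.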

[1] = system: Botrytis cinerea B05.10 isolate; test: Greenhouse whole plant assay (tomato 'Lanai', disease severity); type: in vivo; settings: final rating day (rating #3), two runs, three-week-old 'Lanai' tomato plant
Botrytis = test: Open-air field trial on strawberry (Example 4.1, AUDPC of % disease severity); type: in vivo, Botrytis cinerea; settings: FIG. 6; for Disease control compared with the biological standard, Serenade (AUDPC): GS349 25 g ai/ha; for Disease control compared with the biological standard, Serenade (AUDPC) / Control of Botrytis vs. the untreated control (AUDPC): GS730 100 g ai/ha; for Control of Botrytis vs. the untreated control (AUDPC): non-formulated, Silwet L-77 0.1% v/v, 12 applications, GS349 25 and 50 g ai/ha
Procedure: RNAi compositions, each containing a dsRNA comprising a trigger sequence (GS349 or GS730) described herein were evaluated for ability to control botrytis on strawberry in open-air field trials. Non-formulated (dissolved in water) GS349 and GS730 were each tank mixed with water and the standard adjuvant Silwet L-77 0.1% v/v. GS349 was tested at concentrations of 25 grams of active ingredient per hectare (g ai/ha) and 50 g ai/ha and GS730 was tested at a concentration of 100 g ai/ha. Serenade ASO 85 g ai/ha, a standard biological fungicide, was used as a positive control. A second positive control group was treated with alternating applications of the chemical standards Teldor Plus 750 g ai/ha, Signum 600 g ai/ha, and Switch 500 g ai/ha. The trial also included an untreated group as a negative control.
Test compositions and positive controls were sprayed onto strawberry plants in 12 applications. Plants were observed beginning 14 days after the first application and disease progress was assessed by determining the percentage of surface area of fruit that was affected by the disease (% Disease Severity). Disease severity was plotted over the length of the trial observations and area under disease progress curve (AUDPC) was calculated in order to measure the cumulative effect of the various treatments across multiple assessments. Means were separated according to Fisher's LSD, alpha (p)≤0.05.

B1: GS730: dsRNA trigger targeting B. cinerea Bcsec15 (XM_024692064.1); trigger SEQ ID NO 19, RNA 31, reverse complement 43 (nucleic acid, listed as Botrytis cinerea)
sense: UCAACGCAGUCUCCAAAGCUUUGGAUGAAUUCGAUAACCCGGAUGUUAUUCUGCAAACCAAGAAUGUGAUAGCAUUGUUCAUCCAAACAAUGGAGGGUUGGGGAUAUUCAGUUGCCAUAUUAGAUGCUUAUGUGCUUAAGCUUUUCUAUAGAUAUGCUGAUUUGUUAAAACGGAAAUUCAGCACAGAUUUUCAACAGAUUGUGUCUACCGAUGAAUACAUGCCUAUGCCUGUCAAUAGCGAAGAAGACUUUGAUAAAAUCAUUCAAGUCAGUUGGUAUGUUCCGGACAGACCGAAAGAAGAAUACACAUUCCCCGGUGUAUUACCAUUCUCCCAGAUGUACCCAAUGUGCUGUAUAGAUAUCAGAAAUUUCCUGAAUCGAUUCUACUUCAUAAUGGAUGAUCAUUUUCAACAGCCAAACAUUAUUGAUGAGACACUUAAGAAGUCGAUAGAUGAGCUUCUGUCUGAGGAUAUUUGUGA
antisense: UCACAAAUAUCCUCAGACAGAAGCUCAUCUAUCGACUUCUUAAGUGUCUCAUCAAUAAUGUUUGGCUGUUGAAAAUGAUCAUCCAUUAUGAAGUAGAAUCGAUUCAGGAAAUUUCUGAUAUCUAUACAGCACAUUGGGUACAUCUGGGAGAAUGGUAAUACACCGGGGAAUGUGUAUUCUUCUUUCGGUCUGUCCGGAACAUACCAACUGACUUGAAUGAUUUUAUCAAAGUCUUCUUCGCUAUUGACAGGCAUAGGCAUGUAUUCAUCGGUAGACACAAUCUGUUGAAAAUCUGUGCUGAAUUUCCGUUUUAACAAAUCAGCAUAUCUAUAGAAAAGCUUAAGCACAUAAGCAUCUAAUAUGGCAACUGAAUAUCCCCAACCCUCCAUUGUUUGGAUGAACAAUGCUAUCACAUUCUUGGUUUGCAGAAUAACAUCCGGGUUAUCGAAUUCAUCCAAAGCUUUGGAGACUGCGUUGA
Botrytis cinerea conidia; 25 ppm dsRNA
  Average % Reduction in Biomass: 21%
Botrytis cinerea conidia; 150 ppm dsRNA
  Average % Reduction in Biomass: 45%
[1]; 8 g ai/ha
  % control: 61%
[1]; 25 g ai/ha
  % control: 58%
Botrytis; Serenade ASO 85 g ai/ha
  Disease control compared with the biological standard, Serenade (AUDPC): not significantly different
Botrytis
  Control of Botrytis vs. the untreated control (AUDPC): significant control

B2: GS349: dsRNA trigger targeting B. cinerea CDC42 (XM_001545642.2); trigger SEQ ID NO 14, RNA 26, reverse complement 38 (nucleic acid, listed as Botrytis cinerea)
sense: GUUGUCUUGUCUCGCUCAAGCUUGUCCUGUCUGGUCACUUUUCUUUCUGCCUGAUAAUCCAGACCUCGAAAAUAACCAAAAGAUUGGAAAUCGUUUGCUCAUCUUGCAUGCAUUAUUACUUUCCUGGAUCAAUCUCAUUCAACUCGUUCUCGUGCAUUUCAUUCAACCUCAACCCCUACUUUCAGUCAAUUCAAUUUAAUUCAAUCAUUCAAAUCUUUCAUUUCGCACACUUCACAUUCAACCAUCCUCUCUCAAUCAAAUAUCACCACCUCUCUUAUCGAACGUCAUUUUGCAUACAAUCAAUUCCUACAGACCGAGCGCAACUCGAUACAACCAUCGAAUAACUUCUCACACUUGCUUGUUGAAUUGAUUACUGAAGAAAGUGGAUUUCAAAGACCGAUUUUCCCCCUAGAUAUUCAAGAACGGCUUAUUCUUGUCUCGAGACAAAAC
antisense: GUUUUGUCUCGAGACAAGAAUAAGCCGUUCUUGAAUAUCUAGGGGGAAAAUCGGUCUUUGAAAUCCACUUUCUUCAGUAAUCAAUUCAACAAGCAAGUGUGAGAAGUUAUUCGAUGGUUGUAUCGAGUUGCGCUCGGUCUGUAGGAAUUGAUUGUAUGCAAAAUGACGUUCGAUAAGAGAGGUGGUGAUAUUUGAUUGAGAGAGGAUGGUUGAAUGUGAAGUGUGCGAAAUGAAAGAUUUGAAUGAUUGAAUUAAAUUGAAUUGACUGAAAGUAGGGGUUGAGGUUGAAUGAAAUGCACGAGAACGAGUUGAAUGAGAUUGAUCCAGGAAAGUAAUAAUGCAUGCAAGAUGAGCAAACGAUUUCCAAUCUUUUGGUUAUUUUCGAGGUCUGGAUUAUCAGGCAGAAAGAAAAGUGACCAGACAGGACAAGCUUGAGCGAGACAAGACAAC
Botrytis cinerea conidia; 25 ppm dsRNA
  Average % Reduction in Biomass: 8%
Botrytis cinerea conidia; 150 ppm dsRNA
  Average % Reduction in Biomass: 25%
[1]; 8 g ai/ha
  % control: 46%
[1]; 25 g ai/ha
  % control: 59%
Botrytis; 50 g/h ai, Serenade ASO 85 g ai/ha
  Disease control compared with the biological standard (AUDPC): significantly improved control
Botrytis; 50 g/h ai, alternating Teldor Plus, Signum, Switch
  Disease control compared with the chemical standard (AUDPC): not significantly different
Botrytis; Serenade ASO 85 g ai/ha
  Disease control compared with the biological standard, Serenade (AUDPC): not significantly different
Botrytis
  Control of Botrytis vs. the untreated control (AUDPC): significant control
